Experimental findings from patent US20150344580A1 (MSM PROTEIN TECHNOLOGIES, published 2015) are described below.

Assay [1] has as its target T1, human chemokine receptor CCR7 (human, UniProt P32248 25-378).
T1 sequence: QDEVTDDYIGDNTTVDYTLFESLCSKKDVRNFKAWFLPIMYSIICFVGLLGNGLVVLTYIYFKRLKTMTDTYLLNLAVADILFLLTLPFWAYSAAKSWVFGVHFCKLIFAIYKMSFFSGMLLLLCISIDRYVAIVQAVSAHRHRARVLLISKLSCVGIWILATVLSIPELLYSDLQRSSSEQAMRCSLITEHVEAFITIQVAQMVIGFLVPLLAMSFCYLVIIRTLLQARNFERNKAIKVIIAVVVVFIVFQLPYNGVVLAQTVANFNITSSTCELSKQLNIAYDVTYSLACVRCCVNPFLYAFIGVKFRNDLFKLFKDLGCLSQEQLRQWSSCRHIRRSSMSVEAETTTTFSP
In words: cell-based or functional assay.

Assay [2] concerns the target T1, human chemokine receptor CCR7. In words: flow cytometry titration on CCR7 over-expressing cells (direct binding, printed as IC50). (In general: In flow cytometry, cells or beads pass a laser one at a time.)
The target is the same in assay [3]. In words: flow cytometry titration, CHO cells expressing human CCR7.
Assay [4] has the same target. Kind of assay: flow cytometry titration, CHO-human CCR7 cells, anti-human Fc-PE. The method, then: The affinity of IgG1 antibodies to human CCR7 was evaluated by measuring mean fluorescence value (MFI) of cells expressing CCR7 in the presence of varying concentration of antibody in question, upon staining of bound to the cells antibodies with a commercial anti-human antibody-PE conjugate. The data of such experiments are depicted in FIGS. 9, 10, and 11. In these experiments binding of some antibodies to parental cells or cells expressing mouse CCR7 was also quantitatively characterized by obtaining EC₅₀ value (a concentration of IgG1 at which half-maximum MFI is achieved) for each curve using the SoftMaxPro5 program.

B1: MSM R735 in IgG4 format (antibody)
heavy: EVQLLESGGGLVQPGGSLRLSCAASGFTFSNYNMHWVRQAPGKGLEWVSGIGPRRGRTYYADSVKGRFTISRDNSKNTLYLQMNSLRAEDTAVYYCARSYAYQYRGLDYWGQGTLVTVSSASTKGPSVFPLAPCSRSTSESTAALGCLVKDYFPEPVTVSWNSGALTSGVHTFPAVLQSSGLYSLSSVVTVPSSSLGTKTYTCNVDHKPSNTKVDKRVESKYGPPCPSCPAPEFLGGPSVFLFPPKPKDTLMISRTPEVTCVVVDVSQEDPEVQFNWYVDGVEVHNAKTKPREEQFNSTYRVVSVLTVLHQDWLNGKEYKCKVSNKGLPSSIEKTISKAKGQPREPQVYTLPPSQEEMTKNQVSLTCLVKGFYPSDIAVEWESNGQPENNYKTTPPVLDSDGSFFLYSRLTVDKSRWQEGNVFSCSVMHEALHNHYTQKSLSLSPGK
light: EIVLTQSPGTLSLSPGERATLSCRASQSVSSSYLAWYQQKPGQAPRLLIYGASSRATGIPDRFSGSGSGTDFTLTISRLEPEDFAVYYCQQGSPVTFGQGTKVEIKRTVAAPSVFIFPPSDEQLKSGTASVVCLLNNFYPREAKVQWKVDNALQSGNSQESVTEQDSKDSTYSLSSTLTLSKADYEKHKVYACEVTHQGLSSPVTKSFNRGEC
notes: also called IgG4 formatted MSM R735
Regarding B1, in assay [1], the “IC50 of inhibition of CCL19-induced Ca-flux in cells expressing human CCR7” value came out at 128 nM. Also, in assay [2], the IC50 (as a rule, the concentration needed to halve the response being measured) was in the range of 2.5 to 5.3 nM.

B2: MSM-R707BI (fully human anti-human CCR7 antibody, IgG1) (antibody, V domains shown)
VH: EVQLLESGGGLVQPGGSLRLSCAASGFTFSNYAIHWVRQAPGKGLEWVSAITPRGGYTYYADSVKGRFTISRDNSKNTLYLQMNSLRAEDTAVYYCARGLTISYTPGFDYWGQGTLVTVSS
VL: not shown
notes: IgG1 format; HC CDR3 derivative of MSM-R707; also called MSM-R7707BI; R707B1
For the molecule B2, the EC50 (in general, the concentration needed to bring the measured effect to its halfway point) in assay [3] was found to be 6.7 nM; in assay [4], 5.5 nM.

B3: MSM R707 in IgG4 format (antibody)
heavy: EVQLLESGGGLVQPGGSLRLSCAASGFTFSNYAIHWVRQAPGKGLEWVSAITPRGGYTYYADSVKGRFTISRDNSKNTLYLQMNSLRAEDTAVYYCARGLTMMYTPGMDYWGQGTLVTVSSASTKGPSVFPLAPCSRSTSESTAALGCLVKDYFPEPVTVSWNSGALTSGVHTFPAVLQSSGLYSLSSVVTVPSSSLGTKTYTCNVDHKPSNTKVDKRVESKYGPPCPSCPAPEFLGGPSVFLFPPKPKDTLMISRTPEVTCVVVDVSQEDPEVQFNWYVDGVEVHNAKTKPREEQFNSTYRVVSVLTVLHQDWLNGKEYKCKVSNKGLPSSIEKTISKAKGQPREPQVYTLPPSQEEMTKNQVSLTCLVKGFYPSDIAVEWESNGQPENNYKTTPPVLDSDGSFFLYSRLTVDKSRWQEGNVFSCSVMHEALHNHYTQKSLSLSPGK
light: not shown
notes: also called IgG4 R707; IgG4 formatted MSM R707
For the molecule B3, the “IC50 of inhibition of Ca-flux induced by 18 nM CCL19, Chem-1 CCR7h cells” value in assay [1] is about 20 nM. The same molecule showed an IC50 in assay [2] of 4.9 to 7.6 nM.
